For assay [1], the target named is T1, recombinant human WISP1/His (human, UniProt O95388 23-367).
T1 construct: also called hWISP1; recombinant human WISP1 protein; not shown: His tag
T1 sequence (looked up): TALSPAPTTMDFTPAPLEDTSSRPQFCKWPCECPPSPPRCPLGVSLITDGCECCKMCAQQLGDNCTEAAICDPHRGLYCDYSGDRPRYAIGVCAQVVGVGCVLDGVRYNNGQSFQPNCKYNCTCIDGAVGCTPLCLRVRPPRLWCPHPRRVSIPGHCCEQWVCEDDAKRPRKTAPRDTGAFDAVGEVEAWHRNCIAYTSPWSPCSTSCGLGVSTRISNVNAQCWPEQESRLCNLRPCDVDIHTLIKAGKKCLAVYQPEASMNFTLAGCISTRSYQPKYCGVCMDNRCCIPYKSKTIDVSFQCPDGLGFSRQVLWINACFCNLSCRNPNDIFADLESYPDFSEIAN
The assay can be described thus: ELISA screening. Background: ELISA stands for enzyme-linked immunosorbent assay.

Assay [2] deals with T2, recombinant mouse WISP1/His (mouse, UniProt O54775 23-367).
T2 construct: also called murine WISP1; mWISP1; not shown: His tag
T2 sequence (looked up): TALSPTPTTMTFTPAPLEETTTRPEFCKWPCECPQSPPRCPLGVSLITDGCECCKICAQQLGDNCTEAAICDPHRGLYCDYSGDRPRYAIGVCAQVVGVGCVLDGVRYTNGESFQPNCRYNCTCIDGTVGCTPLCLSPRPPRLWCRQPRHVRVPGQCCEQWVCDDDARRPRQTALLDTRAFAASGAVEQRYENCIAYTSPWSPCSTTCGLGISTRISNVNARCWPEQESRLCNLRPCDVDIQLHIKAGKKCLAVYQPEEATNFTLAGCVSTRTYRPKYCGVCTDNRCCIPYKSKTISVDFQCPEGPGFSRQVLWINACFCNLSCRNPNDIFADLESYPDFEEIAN
The assay can be described thus: ELISA screening.

B1: WIr1G10 (antibody, V domains shown)
VH: QVQLQQSGPGLVKPSQTLSLTCAISGDTVSSNSAAWNWIRQSPSRGLEWLGGTYYRSKWYNDYAVSVKSRITINPDTSKNQFSLQLNSVTPEDTAVYYCTRSAPAAFDYWGQGTLVTVSS
VL: QSVVTQPPSVSAAPGQKVTISCSGSTSNIGNNYVSWYQQLPGTAPKLLIYDNNKRPSGIPDRFSGSKSGTSATLGITGLQTGDEADYYCGTSDTSLSIYVFGTGTKVTVL
notes: Fully human IgG; also called Wlr1G10
On to B1, for which the binding result in assay [1] and in assay [2] was “binds” in each case.

B2: WIr2B12 (antibody, V domains shown)
VH: EVQLVQSGAEVKKPGASVKVSCKASGYTFTSYYMHWVRQAPGQGLEWMGIINPSGGSTSYAQKFQGRVTMTRDTSTSTAYMELSSLRSEDTAVYYCARDIDDYGDGVWGQGTMVTVSS
VL: QSVLTQPPSVSAAPGQKVTISCSGSSSNIANNYVSWYQQLPGTAPKLLIYDNNERPSGIPDRFSGSKSGTSATLGITGLQTGDEADYYCGTWDGSLSAGVFGGGTKLTVL
notes: Fully human IgG; also called Wlr2B12
With B2, the binding result in assay [1] and in assay [2] was “binds” each time.

B3: WIr2D3 (antibody, V domains shown)
VH: QVQLVQSGGGLVQPGRSLRLSCAASGFTFSSYGMHWVRQAPGKGLEWVAVISYDGSNKYYADSVKGRFTISRDNSKNTLYLQMNSLRAEDTAVYYCFDDYVDYWGQGTLVTVSS
VL: DIVMTQTPSSLSASVGDRVTITCRASQGISNYLAWYQQKPGKAPKLLIYAASSLQSGVPSRFSGSGSGTDFTLTISSLRPEDFATYYCLQDYSFPLTFGGGTKVEIK
notes: Fully human IgG; also called Wlr2D3
On to B3, for which the binding result in assay [1] and in assay [2] was “binds” in each case.

B4: WIr2B8 (antibody, V domains shown)
VH: EVQLVQSGAEVKKPGSSVKVSCKASGGTFSSYAISWVRQAPGQGLEWMGGIIPIFGTANYAQKFQGRVTITADESTSTAYMELSSLRSEDTAVYYCARGQPFRDSSGYYWSYFDYWGQGTLVTVSS
VL: SYELTQPPSVSKDLRQTATLTCTGNSNNVGNQGAAWLQQHQGHPPKLLSDRNNNRPSGISERLSASRSENIASLTITGLQPEDEADYFCAAWDTSLNTFLFGGGTKLTVL
notes: Fully human IgG; also called Wlr2B8
As to B4, the binding result in assay [1] and in assay [2] was “binds” throughout.

B5: WIr2D5 (antibody, V domains shown)
VH: EVQLVESGAEVKKPGASVKVSCKASGYTFTSYGISWVRQAPGQGLEWMGWISAYNGNTNYAQKLQGRVTMTTDTSTSTAYMELRSLRSDDTAVYYCARVRVFEYSSLMDVWGQGTTVTVSS
VL: AIQMTQSPSSLSASVGDRVTITCQASQDISNYLNWYQQKPGKAPKLLIYDASNLETGVPSRFSGSGSGTDFTFTISSLQPEDIATYYCQQHDNLPITFGQGTRLEIK
notes: Fully human IgG; also called Wlr2D5
Turning to B5, the binding result in assay [1] and in assay [2] was “binds” each time.

B6: WIr2B11 (antibody, V domains shown)
VH: EVQLVQSGAEVKKPGASVKVSCKASGYTFTSYDINWVRQATGQGPEWLGWLNPGSGKTGNAQNFQGRVFMTWDTSKDTAYMEMSSLRSDDTAVYYCARNLDYWGQGTLVTVSS
VL: AIQLTQSPSTLSASVGDRVTITCRASQSISSWLAWYQQKPGKAPKLLIYATSRLQSGVPSRFSGSGSGTDFTLTINSLQPEDFATYYCQQYKSYPVTFGPGTKVDIK
notes: Fully human IgG; also called Wlr2B11
With B6, the binding result in assay [1] and in assay [2] was “binds” each time.

B7: WIr2D10 (antibody, V domains shown)
VH: QVQLVESGGGVVQPGRSLRLSCGASGFTFSRFAMHWVRQAPGKGLEWVTVTSFDGSEIYYADSVKGRFTISRDNSKNTLYLQMNSLRVDDTAVYFCARDALGSIDYWGQGTLVTVSS
VL: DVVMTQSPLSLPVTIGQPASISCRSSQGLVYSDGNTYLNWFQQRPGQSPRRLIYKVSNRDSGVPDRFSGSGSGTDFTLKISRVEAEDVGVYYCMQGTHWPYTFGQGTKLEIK
notes: Fully human IgG; also called Wlr2D10
As to B7, the binding result in assay [1] and in assay [2] was “binds” in each case.

B8: WIr2E4 (antibody, V domains shown)
VH: QVQLQQSGAEVKKPGASVKVSCKVSGYTLTELSMHWVRQAPGKGLEWMGGFDPEDGETIYAQKFQGRVTMTEDTSTDTAYMELSSLRSEDTAVYYCATDRWWERTTWGAFDIWGQGTMVTVSS
VL: QSVLTQPASVSGSPGQSITISCIGTGSAAVSWYQQHPGKAPKLIIYDVNNRPSGVSARFSGSKSDNTASLTISGLQAEDEGDYYCSTYGAGSTWVFGGGTKLTVL
notes: Fully human IgG; also called Wlr2E4
Consider B8, for which the binding result in assay [1] and in assay [2] was “binds” each time.

B9: WIr2B9 (antibody, V domains shown)
VH: QVQLVQSGAEVKKPGSSVKVSCKASGGTFNNYNINWVRQAPGQGFEWMGRIVPMLGVPKYAQKFQGRVTISADMSTSTAYMELRSLRSDDTAMYYCARGEDLDPWGQGTLVTVS
VL: SYELMQPASVSGSPGQSITISCTGTSSDVGGYNYVSWYQQHPGKAPKLMIYDVSKRPSGVSNRFSGSKSGNTASLTISGLQAEDEADYYCSSYTSSSPYVFGTGTKVTVL
notes: Fully human IgG; also called Wlr2B9
With B9, the binding result in assay [1] and in assay [2] was “binds” each time.

B10: WIr2D9 (antibody, V domains shown)
VH: QVQLVQSGAEVKKPGASVKVSCKVSGYTLTELSMHWVRQAPGKGLEWMGGFDPEDGETIYAQKFQGRVTMTEDTSTDTAYMELSSLRSEDTAVYYCATEGWFGELSPVYWGQGTLVTVSS
VL: AIQLTQSPSSLSASVGDRVTITCRASQDIRNDLGWYQQKPGRAPQRLIYTTSTLQSGVPSRFSGSGSGTEFTLTISSLQPEDFATYYCLQHNTYPWTFGQGTRLEIK
notes: Fully human IgG; also called Wlr2D9
On to B10, for which the binding result in assay [1] and in assay [2] was “binds” each time.

B11: WIr2A6 (antibody, V domains shown)
VH: EVQLVQSGGGLVKPGGSLRLSCEASGFTVSSYYMNWIRQAPGKGLEWISSFTAEGSTYYADSVRGRFSISRDNAKNSLYLEMTRLRADDTAVYYCARDLDRRDWYGGYFDSWGQGTLVTVSS
VL: LPVLTQPPSVSGAPGQRLTISCTGSSSNIGAGYGVHWYQHLPGSAPKLLIYGNSNRPSGVTDRISGSKSGTSASLAITGLQTGDEADYYCAAWDSYLSGYVFGTGTKVTVL
notes: Fully human IgG; also called Wlr2A6
Regarding B11, the binding result in assay [1] and in assay [2] was “binds” each time.

B12: WIr2A9 (antibody, V domains shown)
VH: QVQLVESGAEVKKPGASVKVSCKVSGYTLTELSMHWVRQAPGKGLEWMGGFDPEDGETIYAQKFQGRVTMTEDTSTDTAYMELSSLRSEDTAVYYCATGGSYYYGSGSYGSRPGYFDLWGRGTLVTVSS
VL: QSVLTQPASVSGSPGQSITISCTGTSSDVGSYNLVSWYQQHPGKAPKLMIYEGSKRPSGVPDRFSGSKSGNTASLSISGLQAEDEADYYCSSYTSSSTLVFGGGTKLTVL
notes: Fully human IgG; also called Wlr2A9
On to B12, for which the binding result in assay [1] and in assay [2] was “binds” throughout.

B13: WIr2A2 (antibody, V domains shown)
VH: EVQLVQSGAEVKKPGASVKVSCKVSGYTLTELSMHWVRQAPGKGLEWMGGFDPEDGETIYAQKFQGRVTMTEDTSTDTAYMELSSLRSEDTAVYYCATFMFDHDWFQLDPWGQGTLVTVSS
VL: QSALTQPPSASGTPGQRVTIACSGSSSNIGTNTVNWYQQLPGTAPKLLIYNNNQRPSGVPDRFSGSKSGTSASLAITGLQAEDEADYYCQSYDRSLSGYVFGSGTKLTVL
notes: Fully human IgG; also called Wlr2A2
As for B13, the binding result in assay [1] and in assay [2] was “binds” each time.

B14: WIr2A7 (antibody, V domains shown)
VH: QVQLVQSGAEVKKPGASVKVSCKVSGYTLTELSIYWVRQAPGKGLEWVGGFDPEDGETVYAQNFQGRVTMTEDTSTDTAYMELSSLRSEDTAVYYCATHTSYDKVWGRYRPSLAFDIWGQGTMVTVSS
VL: DIVMTQTPSSLSASVGDRVTITCQASQDISKYLNWYQQKPGKAPNLLIYDASNLETGVPSRFSGSGSGTDFTLTISSLQPEDIGTYYCQQDDNLPLTFGGGTKVEIK
notes: Fully human IgG; also called Wlr2A7
In the case of B14, the binding result in assay [1] and in assay [2] was “binds” in each case.

B15: WIr2B5 (antibody, V domains shown)
VH: EVQLVESGAEVKKPGASVKVSCKASGYTFTSYGISWVRQAPGQGLEWMGWISAYNGNTNYAQKLQGRVTMTTDTSTSTAYMELRSLRSDDTAVYYCARDWDSTSWENYYYGMDVWGQGTTVTVSS
VL: DIVMTQTPSSLSASVGDRVTITCQASQDISNYLNWYQQKPGKAPKLLIYDASNLETGVPSRFSGSGSGTDFTFTISSLQPEDIATYYCQQHDNLPLTFGGGTKLEIK
notes: Fully human IgG; also called Wlr2B5
For B15, the binding result in assay [1] and in assay [2] was “binds” in each case.

B16: WIr1G5 (antibody, V domains shown)
VH: QVQLVESGGGLIQPGGSLRLSCAASGFTVSSNYMSWVRQAPGKGLEWVSVIYSGGSTYYADSVKGRFTISRDNSKNTLYLQMNSLRAEDTAVYYCARFSGWNAFDIWGQGTMVTVSS
VL: DIVMTQTPSTLSASVGDRVTITCRASQSISSWLAWYQQKPGKAPKLLIYKASSLESGVPSRFSGSGSGTDFTLTISSLRPEDFATYYCQHSSTFGQGTRLEIK
notes: Fully human IgG; also called Wlr1G5
For the molecule B16, the binding result in assay [1] and in assay [2] was “binds” throughout.

B17: WIrF8 (antibody, V domains shown)
VH: EVQLLESGAEVKKPGASVKVSCRVPGYSLSELSMHWVRQAPGKGLEWMGGFDPEDGETIYAQKFQGRVTMTEDTSTDTAYMELSSLRSEDTAVYYCAASGGWEVHDAFDTWGQGTMVTVSS
VL: DIVMTQSPSSLSASVGDRVTITCRASQDISYYLAWYQQKPGKAPELLIYAGSSLQSGVPSRFSGSESGTDFTLTISSLQPEDVASYYCQQYKTAPYTFGQGTKLEIK
notes: Fully human IgG; also called WlrF8
For the molecule B17, the binding result in assay [1] and in assay [2] was “binds” throughout.

Source of the values: patent US20170304442A1 (SORRENTO THERAPEUTICS, published 2017).
